For the experiment, the system named is ITD mutant human FLT3 (hFLT3ITD). Put plainly: Cell surface binding to Ba/F3 hFLT3ITD, flow cytometry. The source says:
FIG. 1: Evaluation of epitope specificity and internalization capability of anti-FLT3 monoclonal antibodies. (A) Affinity of seven anti-FLT3 monoclonal antibody (mab) clones to recombinant human FLT3 measured in enzyme-linked immunosorbent assay (ELISA) normalized to the binding of the antibodies to BSA control. […] (B) Schematic FLT3 receptor. Black arrows indicate common mutations and blue arrows indicate the three identified epitopes of seven anti-FLT3 antibodies analyzed in linear epitope mapping by PEPperPRINT. Figure was created with BioRender.com. (C) Binding and temperature induced internalization of anti-FLT3 antibodies in Ba/F3 cells expressing human wildtype FLT3. […] Remaining surface-bound antibody was detected in flow cytometry. […] MFI=mean fluorescence intensity. […] (D) Cell surface binding of 20D9 mab or control human IgG1 antibody to Ba/F3 cells stably expressing pMIY (Ba/F3-pMIY) empty vector (ev), human wildtype (hFLT3 wt) or ITD mutant human FLT3 (hFLT3ITD) was measured in flow cytometry. […] (E) Temperature induced internalization of 4B12 mab in MOLM-13 (FLT3 positive) cells after 30 min incubation at 37° C. compared to 4° C. and HL-60 (FLT3 negative) after 37° C. incubation assessed in immunofluorescence staining. […] (G) Cell surface binding of 20D9 mab or control hIgG1 antibody to Ba/F3-PMIY ev, hFLT3 wt or epitope mutant FLT3 (hFLT3/S50P/P54R) measured in flow cytometry. […]
(In general: Flow cytometry measures light scatter and fluorescence of single cells or particles in a stream.)

B1: 20D9: chimeric (rat variable regions, human IgG1) anti-FLT3 monoclonal antibody; VH SEQ ID NO: 5, VL SEQ ID NO: 6 (antibody, V domains shown)
VH: DVMLVESGGGLVQPGRSLKLSCVASGFTFNNYWMTWIRQAPGKGLEWIASITKTGGGTYYPDSVKGRFTISRDNAKSTLYLQMNSLRSEDTATYYCTTLQQLGVMDAWGQGASVTVSSA
VL: DVQMTQSPSVLSASVGDRITLNCKASQNINKELNWYQQKLGEAPKLLIYNTNNLQTGIPSRFSGSGSGTDYTLTISSLQPEDVATYFCFQHKSWPLTFGSGTKLEIKR
modifications: Clone 20D9, heavy chain variable region without a signal seqeunce; Clone 20D9, light chain variable region without a signal seqeunce
Regarding B1, the “Binding to Ba/F3 cell lines expressing FLT3-ITD” value is “specific binding”.

For the origin of these results see patent US20250049939A1, “NOVEL FLT3 ANTIBODIES AND ANTIBODY-DRUG-CONJUGATES BASED THEREON, THERAPEUTIC METHODS AND USES THEREOF IN COMBINATION WITH TYROSINE KINASE INHIBITORS” (TUBULIS GmbH, priority 2021, published 2025).
